# PMC7603008 (Materials, 2020)
# B1: rCPNE7: recombinant CPNE7 protein, a dental epithelium-derived calcium-dependent phospholipid-binding protein (Origene) (protein, UniProt Q9UBL6 1-633, looked up)
# Copine-7: MSAGSERGAAATPGGLPAPCASKVELRLSCRHLLDRDPLTKSDPSVALLQQAQGQWVQVGRTEVVRSSLHPVFSKVFTVDYYFEEVQRLRFEVYDTHGPSGFSCQEDDFLGGMECTLGQPAQKWLLQVVMRVSVDVLGPAGHCAKHFLCCTESSHLARTGPSFLLRYDDLCLPWATAGAVRWWTCRGGHTQGWQIVAQKKVTRPLLLKFGRNAGKSTITVIAEDISGNNGYVELSFRARKLDDKDLFSKSDPFLELYRVNDDQGLQLVYRTEVVKNNLNPVWEAFKVSLSSLCSCEETRPLKCLVWDYDSRGKHDFIGEFSTTFEEMQKAFEEGQAQWDCVNPKYKQKRRSYKNSGVVVLADLKFHRVYSFLDYIMGGCQIHFTVAIDFTASNGDPRNSCSLHYINPYQPNEYLKALVSVGEICQDYDSDKRFSALGFGARIPPKYEVSHDFAINFNPEDDECEGIQGVVEAYQNCLPRVQLYGPTNVAPIISKVARVAAAEESTGKASQYYILLILTDGVVTDMADTREAIVRASRLPMSIIIVGVGNADFTDMQVLDGDDGVLRSPRGEPALRDIVQFVPFRELKNASPAALAKCVLAEVPKQVVEYYSHRGLPPRSLGVPAGEASPGCTP
# Columns and labels:
# [1] = test system: deep cavities in beagle dog premolars; assay: Deep cavity tooth defect model in beagle dog premolars; assay type: in vivo
# Text: (§1) For in vivo canine studies, a total of 10 beagle dogs (2 y) were operated on, with all of them reaching end points. For each animal, 4 to 6 maxillary premolars and 6 mandibular premolars were used, depending on their periodontal conditions. Control and experimental groups were allocated to each and every animal so that possible biases resulting from individual nutritional, behavioral, and pulpal conditions could be eliminated. Compared to small animal studies, the sample size was necessarily limited for feasibility and ethical reasons. While the exact numbers for each experiment are included in the figure legends, at least 6 premolars and up to 12 premolars were assigned to every control and experimental group. Investigators performing beagle operation and sampling were not blinded, while investigators involved in histological analysis were blinded. All experiments using animals followed protocols approved by the Institutional Animal Care and Use Committee of Seoul National University (SNU-180416-2-1 and SNU-171020-5-2).
# (§2) Beagle dogs of 1–2 years of age were used for three independent experiments. After disinfecting the cervical regions of the maxillary and mandibular premolars with 0.5% chlorhexidine, dish-shaped class V cavities were prepared using a #4 high-speed round bur (head diameter, 1.4 mm). […]
# [2] = test system: dental pulp cells under deep cavities; assay: TUNEL assay of dental pulp at deep cavity preparation areas; assay type: in vivo, beagle dog; conditions: 3 weeks, versus GI cement only control
# Description: Apoptotic cells were detected using the TUNEL kit (Roche Biochemicals, Basel, Switzerland), according to the manufacturer’s instructions. Endogenous peroxidase activity within the tissue sections were blocked in 3% H2O2 prior to enzymatic labeling. To yield a colored reaction product, enzymatically labeled cells were then incubated with 3,3-diaminobenzidine tetrahydrochloride. Visualization was achieved by incubating the sections with diaminobenzidine tetrahydrochloride (DAB), and subsequent counter-staining with hematoxylin. Positive TUNEL signals were converted to red color using IHC Profiler of Image J software (National Institute of Health, Gaithersburg, MD, USA).
# [3] = test system: cavities in beagle dog premolars; assay: Characterisation of CPNE7-induced hard tissue (SEM, Masson's trichrome, alternative filling materials); assay type: in vivo
# Description: Beagle dogs of 1–2 years of age were used for three independent experiments. After disinfecting the cervical regions of the maxillary and mandibular premolars with 0.5% chlorhexidine, dish-shaped class V cavities were prepared using a #4 high-speed round bur (head diameter, 1.4 mm). For shallow cavities, the drilling stopped when half to two-thirds of the bur head penetrated the tooth structure, depending on the tooth size. For deep cavities, the drilling stopped when the color of the remaining dentin looked reddish gray. The smear layer was removed with a gentle application of 17% EDTA. After sufficient irrigation, surgical sites were dried with a cotton pellet. For CPNE7 function analysis, the cavities were either untreated or treated with a topical application of rCPNE7 (recombinant CPNE7) protein (1 µg total rCPNE7 per tooth in a buffer containing 25 mM Tris-HCl, 100 mM glycine, and 10% glycerol). After a brief incubation for diffusion, the cavities were then filled with either glass ionomer (GI) cement (GC; Fuji II LC; GC America Inc., Alsip, IL, USA), composite resin (Filtek Supreme Ultra Flowable Restorative; 3 M, MN, USA) or intermediate restorative material (IRM; Dentsply Sirona, New York, PA, USA). For peptide function analysis, an HIV-1 Tat-derived cell-penetrating peptide was used as control. In addition to the abovementioned shallow and deep cavity models, complete pulp exposure was performed for peptide analysis. For complete pulp exposure, the drilling stopped when a pin-point exposure of the pulp was generated and bleeding was evident. Cotton pellets soaked in saline were used for bleeding control. Cavities with exposed pulps were divided into two groups for the experiment. Group 1 received only GI cement filling, group 2 received GI cement filling after MTA (ProRoot MTA; Dentsply Sirona, New York, PA, USA) sealing, and group 3 received GI cement filling after MTA mixed with CPNE7-derived peptide (Cpne7-DP) sealing. […]
# [4] = test system: shallow cavities in beagle dog premolars; assay: Shallow cavity tooth defect model in beagle dog premolars; assay type: in vivo
# Text: as §1, §2
# [5] = beagle dog premolars, topical application, then cavity filling, H&E histology after 3 weeks
# [6] = six weeks instead of three, H&E, n = 6
molecule,measurement,setting,value
B1,New hard tissue formation beneath deep cavity,[1]; [5],newly generated tertiary dentin was present beneath the remaining dentin
same,"Thickness of newly formed tubular dentin, deep cavity",[1]; [6],increased significantly
same,Cell death under the newly generated dentin (TUNEL),[2],significantly reduced cell death
same,Collagen content of newly generated dentin area,[3]; Masson's trichrome staining,higher collagen content
same,Hard tissue formation with alternative cavity filling material,"[3]; composite resin or zinc oxide-eugenol (ZOE) filling, H&E after six weeks, n = 6",formation of tubular dentin
same,Presence of dentinal tubules in the newly mineralized area,"[3]; scanning electron microscopy, along the entire length of predentin",clear tubule structure
same,New hard tissue formation beneath shallow cavity,[4]; [5],newly generated tertiary dentin retaining the physiologic tubule structure
same,"Thickness of newly formed tubular dentin, shallow cavity",[4]; [6],increased significantly
